Data set [1] concerns Acetyl-Prolyl-Arginyl-Asparaginyl-Lysyl-aminoacetamide coumarin (Ac-PRNK-ACC).
Data set [2] has as its system Ac-PRNR-ACC.
The test system of data set [3] is Ac-PRTK-ACC.
Data set [4] has as its system Ac-PANK-ACC.
Data set [5] has as its system Ac-PRNR-ACC. The experiment in a line: single substrate kinetics, fluorogenic ACC release, Skin (β-I) Tryptase.
For data set [6], the system named is Acetyl-Prolyl-Arginyl-Asparaginyl-Lysyl-aminoacetamide coumarin (Ac-PRNK-ACC). The data set is described as above.
The subject of data set [7] is Ac-PRTK-ACC. The description is as above.
Data set [8] concerns Ac-PANK-ACC. The description is as above.
The subject of data set [9] is Ac-PRNR-ACC. Briefly: single substrate kinetics, fluorogenic ACC release, Lung (β-II) Tryptase.
The test system of data set [10] is Acetyl-Prolyl-Arginyl-Asparaginyl-Lysyl-aminoacetamide coumarin (Ac-PRNK-ACC). The data set is described as above.
Data set [11] deals with Ac-PRTK-ACC. The description is as above.
Data set [12] concerns Ac-PANK-ACC. Described as above.

recombinant human βI-tryptase, sequence (chain, as listed by the source): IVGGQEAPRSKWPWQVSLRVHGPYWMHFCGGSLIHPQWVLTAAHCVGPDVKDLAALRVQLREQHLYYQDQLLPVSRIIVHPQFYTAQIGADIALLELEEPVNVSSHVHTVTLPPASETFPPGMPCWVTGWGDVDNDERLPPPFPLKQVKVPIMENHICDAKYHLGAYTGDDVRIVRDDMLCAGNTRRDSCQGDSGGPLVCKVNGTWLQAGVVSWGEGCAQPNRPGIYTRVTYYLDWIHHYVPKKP

In the case of “Human alpha-thrombin (Haematologic Technologies, Inc.)”, the “cleavage of the fluorogenic substrate (fluorescence, excitation 355 nm, emission 460 nm)” value in data set [1] is reported as “Ac-PRNK-ACC (SEQ. ID. NO: 12) is a specific substrate for tryptase in relation to other blood borne serine proteases”.
In general, kcat refers to the number of substrate molecules converted per active site and unit of time at saturation. Broadly, the Km is the substrate concentration at which the rate is half of its maximum. Consider recombinant human βI-tryptase, for which the kcat turned out to be 20.9 s⁻¹ with Ac-PRNR-ACC [2], 17.8 s⁻¹ in data set [1], 18.3 s⁻¹ with Ac-PRTK-ACC [3] and 19.1 s⁻¹ in the data set on Ac-PANK-ACC [4]. Also, the kcat/km (s^-1M^-1) with Ac-PRNR-ACC [2] turned out to be 1.12e+06 s^-1M^-1; in [1], 1.23e+06 s^-1M^-1; in the data set on Ac-PRTK-ACC [3], 780000 s^-1M^-1; in the data set with Ac-PANK-ACC [4] it was 140000 s^-1M^-1. In addition, the “cleavage of the fluorogenic substrate (fluorescence, excitation 355 nm, emission 460 nm)” value in [1] is recorded as “Ac-PRNK-ACC (SEQ. ID. NO: 12) is a specific substrate for tryptase in relation to other blood borne serine proteases”. The “preference over Ac-PRTK-ACC (kcat/Km)” value in data set [1] is given as “A minimal preference, approximately 2-fold, for P2-asparagine over P2-threonine was seen for both enzymes”. Further, the Km with Ac-PRNR-ACC [5] stood at 18.6 µM; in [6], 14.5 µM; in the data set with Ac-PRTK-ACC [7] it was 23.4 µM; in the data set with Ac-PANK-ACC [8], 133 µM.
As to recombinant human βII-tryptase, the “activity relative to Ac-PRNK-ACC (kcat/Km)” value with Ac-PRNR-ACC [2] is “about 70-90% of the activity of Ac-PRNK-ACC”. Moreover, the kcat in the data set on Ac-PRNR-ACC [2] turned out to be 21.8 s⁻¹; in [1], 16.8 s⁻¹; in the data set on Ac-PRTK-ACC [3], 18.7 s⁻¹; in the data set with Ac-PANK-ACC [4], 20.3 s⁻¹. Moreover, the kcat/km (s^-1M^-1) was 1.31e+06 s^-1M^-1 with Ac-PRNR-ACC [2], 1.89e+06 s^-1M^-1 in [1], 1.27e+06 s^-1M^-1 in the data set with Ac-PRTK-ACC [3] and 180000 s^-1M^-1 in the data set on Ac-PANK-ACC [4]. For the same substance, the “preference over Ac-PANK-ACC (kcat/Km)” value in [1] is recorded as “an approximately 10-fold preference for Ac-PRNK-ACC (SEQ. ID. NO: 12) over Ac-PANK-ACC”. In [1], the “preference over Ac-PRTK-ACC (kcat/Km)” value is listed as “A minimal preference, approximately 2-fold, for P2-asparagine over P2-threonine was seen for both enzymes”. Besides, the Km in the data set on Ac-PRNR-ACC [9] amounted to 16.5 µM; in [10] it was 8.9 µM; in the data set with Ac-PRTK-ACC [11] it was 14.7 µM; in the data set on Ac-PANK-ACC [12], 110 µM.
